B1: TSPAN10 (parent)
chain: EGCGPPLRRWLRANLAASGGYAIA
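Also: lentivirally expressed fusions sorted by FACS into six bins by GFP to DsRed ratio, PSI derived from sequencing read proportions per bin multiplied by bin number.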

Variants of B1 are the subject of the series. Nature of the series: protein stability index of a GFP-peptide fusion (GPS, HEK-293T) (PSI 1-6); higher = more stable. As to conditions: c terminus: a fixed tail appended.
For the variant EGCGPPLRRWLRAMLAASGGYAIA, the protein stability index is 2.08. In the case of EGCGPPLRRWLRAGLAASGGYAIA it was 2.24; in that of EGCGPPLRRWLRAWLAASGGYAIA, 1.83. In the case of EGCGPPLRRWLRASLAASGGYAIA, the protein stability index was 1.93.

Take EGCGPPLRRWLRAQLAASGGYAIA: the protein stability index was found to be 1.39. In the case of EGCGPPLRRWLRAILAASGGYAIA, the protein stability index was 1.05. Regarding EGCGPPLRRWLRADLAASGGYAIA, the protein stability index came to 1.86. On to EGCGPPLRRWLRARLAASGGYAIA, for which the protein stability index is 1.74. In the case of EGCGPPLRRWLRATLAASGGYAIA it was 1.86.

In the case of EGCGPPLRRWLRAKLAASGGYAIA, the protein stability index was found to be 2.81. Consider EGCGPPLRRWLRAELAASGGYAIA, for which the protein stability index was determined as 1.47.

Regarding EGCGPPLRRWLRAHLAASGGYAIA, the protein stability index turned out to be 2.48.

Take EGCGPPLRRWLRAPLAASGGYAIA: the protein stability index is 2.06.

Take EGCGPPLRRWLRALLAASGGYAIA: the protein stability index is 1.02. Turning to EGCGPPLRRWLRAALAASGGYAIA, the protein stability index is 2.3. For EGCGPPLRRWLRAYLAASGGYAIA, the protein stability index is 1.46. Turning to EGCGPPLRRWLRAFLAASGGYAIA, the protein stability index was determined as 1.92.

As to EGCGPPLRRWLFANLAASGGYAIA, the protein stability index was 2.29. On to EGCGPPLRRWLIANLAASGGYAIA, for which the protein stability index was found to be 2.82.

For the variant EGCGPPLRRWLEANLAASGGYAIA, the protein stability index came out at 2.23. Take EGCGPPLRRWLYANLAASGGYAIA: the protein stability index amounted to 2.84.

For the variant EGCGPPLRRWLHANLAASGGYAIA, the protein stability index was 2.47.

For EGCGPPLRRWLPANLAASGGYAIA, the protein stability index came out at 2.5. In the case of EGCGPPLRRWLKANLAASGGYAIA it was 2.92; in that of EGCGPPLRRWLMANLAASGGYAIA, 1.9; in that of EGCGPPLRRWLNANLAASGGYAIA, 1.73. As to EGCGPPLRRWLSANLAASGGYAIA, the protein stability index is 2.58. For the variant EGCGPPLRRWLLANLAASGGYAIA, the protein stability index worked out at 3.2. With EGCGPPLRRWLDANLAASGGYAIA, the protein stability index came out at 1.8. As for EGCGPPLRRWLTANLAASGGYAIA, the protein stability index came out at 1.82.

Turning to EGCGPPLRRWLCANLAASGGYAIA, the protein stability index was found to be 2.17.

Regarding EGCGPPLRRWLAANLAASGGYAIA, the protein stability index came out at 1.75. Next, EGCGPPLRRWLQANLAASGGYAIA: 2.17; EGCGPPLRRWLGANLAASGGYAIA: 1.82. Consider EGCGPPLRRWLWANLAASGGYAIA, for which the protein stability index turned out to be 3.67.

EGCGPPLRRWLRKNLAASGGYAIA: the protein stability index amounted to 2.95. Take EGCGPPLRRWLRINLAASGGYAIA: the protein stability index amounted to 1.67. Consider EGCGPPLRRWLRYNLAASGGYAIA, for which the protein stability index was determined as 1.66. As for EGCGPPLRRWLRCNLAASGGYAIA, the protein stability index is 2.93. Take EGCGPPLRRWLRNNLAASGGYAIA: the protein stability index was 2.19.

Turning to EGCGPPLRRWLRFNLAASGGYAIA, the protein stability index worked out at 2.46. Next, EGCGPPLRRWLRENLAASGGYAIA: 3.18; EGCGPPLRRWLRGNLAASGGYAIA: 3.35; EGCGPPLRRWLRQNLAASGGYAIA: 2.83. Take EGCGPPLRRWLRSNLAASGGYAIA: the protein stability index amounted to 2.58. As for EGCGPPLRRWLRRNLAASGGYAIA, the protein stability index worked out at 1.62. Consider EGCGPPLRRWLRTNLAASGGYAIA, for which the protein stability index was 2.25.

Take EGCGPPLRRWLRVNLAASGGYAIA: the protein stability index turned out to be 1.75.

For EGCGPPLRRWLRWNLAASGGYAIA, the protein stability index worked out at 2.03. On to EGCGPPLRRWLRLNLAASGGYAIA, for which the protein stability index amounted to 2.21. For EGCGPPLRRWLRPNLAASGGYAIA, the protein stability index came out at 2.87.

Regarding EGCGPPLRRWLRHNLAASGGYAIA, the protein stability index was 2.26. With EGCGPPLRRWLRDNLAASGGYAIA, the protein stability index came out at 1.83. In the case of EGCGPPLRRWLRMNLAASGGYAIA it was 1.4; in that of EGCGPPLRRWDRANLAASGGYAIA, 2.12. For EGCGPPLRRWHRANLAASGGYAIA, the protein stability index was determined as 2.94.

In the case of EGCGPPLRRWWRANLAASGGYAIA, the protein stability index was determined as 1.5. EGCGPPLRRWERANLAASGGYAIA: the protein stability index came out at 2.57. On to EGCGPPLRRWCRANLAASGGYAIA, for which the protein stability index turned out to be 1.68. For the variant EGCGPPLRRWVRANLAASGGYAIA, the protein stability index turned out to be 1.82. Regarding EGCGPPLRRWFRANLAASGGYAIA, the protein stability index was found to be 1.03.

EGCGPPLRRWARANLAASGGYAIA: the protein stability index was found to be 2.55.

For the variant EGCGPPLRRWYRANLAASGGYAIA, the protein stability index was 1.9.

For EGCGPPLRRWRRANLAASGGYAIA, the protein stability index was found to be 2.56. Take EGCGPPLRRWTRANLAASGGYAIA: the protein stability index worked out at 2.89. Regarding EGCGPPLRRWPRANLAASGGYAIA, the protein stability index was 2.65. EGCGPPLRRWIRANLAASGGYAIA: the protein stability index was found to be 1.91. For the variant EGCGPPLRRWSRANLAASGGYAIA, the protein stability index turned out to be 2.61. Turning to EGCGPPLRRWGRANLAASGGYAIA, the protein stability index is 1.74.

As for EGCGPPLRRWKRANLAASGGYAIA, the protein stability index worked out at 2.43. For EGCGPPLRRWMRANLAASGGYAIA, the protein stability index came out at 2.51.

EGCGPPLRRWQRANLAASGGYAIA: the protein stability index is 3.13. As to EGCGPPLRRMLRANLAASGGYAIA, the protein stability index was 2.62. In the case of EGCGPPLRRYLRANLAASGGYAIA it was 2.44; in that of EGCGPPLRRTLRANLAASGGYAIA, 3.01; in that of EGCGPPLRRVLRANLAASGGYAIA, 1.89. Regarding EGCGPPLRRPLRANLAASGGYAIA, the protein stability index is 3.39. Take EGCGPPLRRQLRANLAASGGYAIA: the protein stability index was 2.24.

Take EGCGPPLRRRLRANLAASGGYAIA: the protein stability index amounted to 3.5.

As for EGCGPPLRRSLRANLAASGGYAIA, the protein stability index amounted to 2.81. Next, EGCGPPLRRNLRANLAASGGYAIA: 2.55; EGCGPPLRRWLRANCAASGGYAIA: 1.49; EGCGPPLRRWLRANQAASGGYAIA: 3.2. Next, EGCGPPLRRWLRANDAASGGYAIA: 2.81; EGCGPPLRRWLRANAAASGGYAIA: 2.36; EGCGPPLRRWLRANPAASGGYAIA: 2.14. Turning to EGCGPPLRRWLRANIAASGGYAIA, the protein stability index turned out to be 1.93. For EGCGPPLRRWLRANNAASGGYAIA, the protein stability index was determined as 2.28. As to EGCGPPLRRWLRANEAASGGYAIA, the protein stability index turned out to be 2.96. As to EGCGPPLRRWLRANGAASGGYAIA, the protein stability index was 2.59. EGCGPPLRRWLRANMAASGGYAIA: the protein stability index is 2.16. For EGCGPPLRRWLRANFAASGGYAIA, the protein stability index is 1.58. For EGCGPPLRRWLRANHAASGGYAIA, the protein stability index was found to be 2.62. As to EGCGPPLRRWLRANKAASGGYAIA, the protein stability index came out at 2.53.
